The results in this text go back to EP4613859A1, “TLR SIGNALING INHIBITORY PEPTIDE AND COMPOSITION INCLUDING SAME FOR PREVENTION OR TREATMENT OF INFLAMMATORY DISEASES” (Korea Institute of Science and Technology, priority 2022, dated 2025).

Assay [1] addresses human MAL (human) (UniProt P58753). The assay can be described thus: P8 phage display panning on plate-immobilised MAL, after round 4, NGS.
The target is the same in assay [2]. Put plainly: P3 phage display panning on plate-immobilised MAL, after round 4, NGS.
Assay [3] has as its target human MyD88 (human) (UniProt Q99836). The assay can be described thus: P3 phage display panning on plate-immobilised MyD88, after round 4, NGS.
Assay [4] has the same target. Put plainly: P8 phage display panning on plate-immobilised MyD88, after round 4, NGS.

Chain of UniProt Q99836 (Q99836 155-296 limits assumed): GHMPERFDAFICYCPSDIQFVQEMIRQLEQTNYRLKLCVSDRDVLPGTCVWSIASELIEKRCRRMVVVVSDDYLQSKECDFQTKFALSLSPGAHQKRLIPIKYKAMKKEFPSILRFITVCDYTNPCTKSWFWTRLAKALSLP
Chain of UniProt P58753 (P58753 79-221 limits assumed): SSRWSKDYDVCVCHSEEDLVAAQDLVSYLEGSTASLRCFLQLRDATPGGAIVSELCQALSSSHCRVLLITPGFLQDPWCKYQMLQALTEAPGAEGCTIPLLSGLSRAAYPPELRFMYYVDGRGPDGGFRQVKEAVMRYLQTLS

In the assay with human MAL (human) [1], YFLHFLLFSRPETEYI displayed an NGS count of 17200 count and a Population of 5.31%.
In the assay with human MAL (human) [1], WFMMKFRTVLDHVNDV gave an NGS count of 2270 count and a Population of 0.7%.
In the assay with human MAL (human) [1], KLIQGWFLYRLLKIEQ yielded an NGS count of 2070 count and a Population of 0.64%.
Taken in the same sequence, the figures for WFLTAFRMAMDQVADT were 353 count and 0.11%.
As to AFFWAQLKSVLGNPTM, in the assay with human MAL (human) [1], the NGS count was 28800 count and the Population is 8.9%.
The like results for LFFWESLKQLLRSDGR were, in that order, 22600 count and 5.97%.
With NQWRNALTAAANLSGW, the NGS count with human MAL (human) [2] was 25800 count; in the assay with human MyD88 (human) [3], 28700 count; with human MAL (human) [1] it was 848 count. Also, the Population came to 9.71% with human MAL (human) [2], 8.35% with human MyD88 (human) [3] and 0.26% in the assay with human MAL (human) [1].
In the assay with human MAL (human) [1], WFLFTVRSAIYAMSPA yielded an NGS count of 3160 count and a Population of 0.97%.
Taken in the same sequence, the figures for HFFWIQLKSILGETSF were 3620 count and 1.12%.
On to YLKWGYPWFWDRLRFA, for which the NGS count came to 1680 count with human MAL (human) [2], 7320 count in the assay with human MyD88 (human) [3] and 517 count in the assay with human MAL (human) [1]. For the same molecule, the Population turned out to be 0.63% with human MAL (human) [2], 2.13% with human MyD88 (human) [3] and 0.19% in the assay with human MAL (human) [1].
For KFIWDIINAISSQIRV, in the assay with human MAL (human) [1], the NGS count was found to be 146 count and the Population was found to be 0.05%.
In the assay with human MyD88 (human) [3], DTKLKKGESIAPELLR displayed an NGS count of 2460 count and a Population of 0.72%. In the assay with human MAL (human) [1], the NGS count came out at 5620 count and the Population stood at 1.74%.
In the assay with human MAL (human) [1], SEFIQKIILWMNPKIV displayed an NGS count of 4460 count and a Population of 1.38%.
Taken in the same sequence, the figures for TFLGHLYNALVQAGIH were 24700 count and 7.64%.
As for FTLAVHVRNWLVGGFI, in the assay with human MAL (human) [1], the NGS count worked out at 520 count and the Population was found to be 0.19%.
Taken in the same sequence, the figures for AFLYTFLINLTHPTNF were 51100 count and 18.9%.
The like results for RNNFIGHLYQALYRIG were, in that order, 3120 count and 0.96%.
The like results for AWALHQLQQIINWHET were, in that order, 232 count and 0.07%.
In the assay with human MAL (human) [1], AFFWEQLRTVLGKPTM gave an NGS count of 11800 count and a Population of 3.65%.
Taken in the same sequence, the figures for YLISYIFNELARAGFS were 295 count and 0.09%.
The like results for DFLNWFIALKSTVIEN were, in that order, 867 count and 0.27%.
Taken in the same sequence, the figures for KLFWEKFKEFFLPSLSR were 4890 count and 1.51%.
For YNFISHLYDALHRNRI, in the assay with human MAL (human) [2], the NGS count is 2680 count and the Population turned out to be 1.01%. In the assay with human MyD88 (human) [3], this molecule returned an NGS count of 2890 count and a Population of 0.84%.
In the assay with human MAL (human) [1], RNFVAYLFQALANKGI came in with an NGS count of 28000 count and a Population of 8.63%.
As to ESILNQLRRSSQSIAN, the results for the NGS count with human MAL (human) [2] and with human MyD88 (human) [3] were 3680 count and 1980 count, respectively. The Population with human MAL (human) [2] came out at 1.38%; in the assay with human MyD88 (human) [3] it was 0.58%.
In the assay with human MAL (human) [1], WALQELVKILQAKIFL showed an NGS count of 227 count and a Population of 0.07%.
Regarding QLIQQWIELHLHQLHL, in the assay with human MyD88 (human) [4], the NGS count turned out to be 1600 count and the Population stood at 0.62%. In the assay with human MAL (human) [1], this molecule had an NGS count of 9390 count and a Population of 2.9%.
Consider SLLYDHLRWLGIRAFL, for which, in the assay with human MAL (human) [1], the NGS count stood at 2580 count and the Population was 0.8%.
Taken in the same sequence, the figures for WFYERLVSLILRDTKV were 79000 count and 24.4%.
